Data on one variant can be found in IntAct's records for PubMed 18971339.

To fix the notation:
B1: Interferon-induced, double-stranded RNA-activated protein kinase (Homo sapiens), P19525 (parent)
chain: MAGDLSAGFFMEELNTYRQKQGVVLKYQELPNSGPPHDRRFTFQVIIDGREFPEGEGRSKKEAKNAAAKLAVEILNKEKKAVSPLLLTTTNSSEGLSMGNYIGLINRIAQKKRLTVNYEQCASGVHGPEGFHYKCKMGQKEYSIGTGSTKQEAKQLAAKLAYLQILSEETSVKSDYLSSGSFATTCESQSNSLVTSTLASESSSEGDFSADTSEINSNSDSLNSSSLLMNGLRNNQRKAKRSLAPRFDLPDMKETKYTVDKRFGMDFKEIELIGSGGFGQVFKAKHRIDGKTYVIKRVKYNNEKAEREVKALAKLDHVNIVHYNGCWDGFDYDPETSDDSLESSDYDPENSKNSSRSKTKCLFIQMEFCDKGTLEQWIEKRRGEKLDKVLALELFEQITKGVDYIHSKKLIHRDLKPSNIFLVDTKQVKIGDFGLVTSLKNDGKRTRSKGTLRYMSPEQISSQDYGKEVDLYALGLILAELLHVCDTAFETSKFFTDLRDGIISDIFDKKEKTLLQKLLSKKPEDRPNTSEILRTLTVWKKSPEKNERHTC
partner: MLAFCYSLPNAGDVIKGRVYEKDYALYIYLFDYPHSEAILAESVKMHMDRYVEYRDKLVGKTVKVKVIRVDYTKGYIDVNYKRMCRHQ

In the assay the parent is B1. To be noted: with pg041_vaccc OPG041, P20639.
On to D486V, for which the “effect of a mutation on the interaction” value is given as “decreasing interaction strength”.
